For experiment [1], the target named is Human plasma kallikrein (human) (UniProt P03952).
In experiment [2] the target is tissue factor-Factor VIIa (human) (UniProt P13726).
In experiment [3] the target is Human Factor XIa (human) (UniProt P03951).
For experiment [4] the target is unchanged. The source holds these as a separate data set.
The target is the same in experiment [5]. Put plainly: inhibition of FXIa, chromogenic substrate, fit for tight-binding inhibitors (apparent Ki*).
Experiment [6] concerns the target Human plasma kallikrein (human) (UniProt P03952). Kind of experiment: inhibition of human plasma kallikrein, substrate S2302, fit for tight-binding inhibitors (apparent Ki*).

Results on one substance are retold here after US5786328.

As for “APPI (Alzheimer's amyloid β-protein precursor inhibitor)”, the fraction of remaining proteolytic activity with 100 nM inhibitor (fraction of uninhibited rate) in experiment [1] came out at 0.81; in experiment [2] it was 0.6; with Human Factor XIa (human) [3] it was 0.03. Besides, the fold prolongation of the clotting time of normal human plasma, APTT assay with Human Factor XIa (human) [4] was 2.8 fold. Further, the Ki with Human Factor XIa (human) [5] was 2.7 nM; in experiment [6], 340 nM.
